The test system of this data set is Bacillus subtilis DB104 (SP-AmyQ fusion secretion). Put plainly: AmyQ secretion efficiency, weighted average sort bin (1 = best secretion, 10 = worst) (bin number (weighted average, 1-10)); higher = lower secretion efficiency. Summed up:
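Secretion score gives the read-frequency-weighted average bin number, normalised to beads per bin, with low-abundance sequences left out. A B. subtilis DB104 library expressing mature AmyQ fused to designed signal peptides, integrated at amyE, was encapsulated with fluorescein-starch at about 0.3 cells per ~65 nL alginate bead. Beads were grown about 13 h at room temperature, stained with nile red, and the occupied ones were sorted by large-particle flow cytometry into 10 equally populated bins by green/red fluorescence ratio before the amplicons from each bin were Illumina-sequenced.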

MFKKLLLATSALTFSLSLVLPLDGHAKAQSV registered an AmyQ secretion efficiency of 1.96.
Next, MFKKLLLATSALTFSLSLVLPLDGHYKAQEV: 6.94; MFKKLLLATSALTFSLSLVLRRKKKHAKAQEV: 5.87; MFKKLLLATSALTFSLSLVLVLSIHAKAQEV: 3.44.
Consider MFKKLLLATSALTPLDGHAKAQEV, for which the AmyQ secretion efficiency turned out to be 5.8.
For MFKKLRKKKKRLTFSLSLVLPLDGHAKAQEV, the AmyQ secretion efficiency was 6.86.
Next, MFKKPTISLLIIFLLASAVLAKPIEAHTV: 2.38.
In turn, MFKKQSRATSALTFSLSLVLPLDGHAKAQEV had an AmyQ secretion efficiency of 6.63.
Next, MFKRGIQAFAGGIILATAVLAAVFYLTDEDQAAAV: 5.98; MFLAKRVSALTPSTTLAITAKAKEL: 7.34; MFLFQVSHAIIISVMLSFVIAVFHTIHASELTP: 6.77.
MFLKLLLATSALTFSLSLVLPLDGHAKAQEV returned an AmyQ secretion efficiency of 2.93.
The figure for MFLRKILLSSALSLGMLVSAAPVLATSS is 2.2.
The sequence MFMKHTISLLIIFLLASAVLAKPIEAHTV showed an AmyQ secretion efficiency of 2.89.
Turning to MFMKSGMEQAVSVLLLLSRLPVQASLTSE, the AmyQ secretion efficiency is 9.96.
Next, MFMLFMNASLVLFAVVFVFAVKGAPAKAETH: 5.11; MFMLTMNNMAIIIAIIAAVIVIAALITFNVRNASPG: 6.62.
Regarding MFMMLGSLLITAGILVFFAVVVKDVFAAGL, the AmyQ secretion efficiency worked out at 6.51.
On to MFMMSTNNFKRFIAAFLVLALMISLVPADVLAKST, for which the AmyQ secretion efficiency turned out to be 2.59.
Next, MFMQIITATTAVVLGSTLFAGAASAQSI: 3.83; MFNLQVMLALTAAAGLGLTALHSAPAAKAAPL: 3.11.
MFNRLFRGCGGKQKIMAFTLPNSVYAQKP showed an AmyQ secretion efficiency of 7.39.
In turn, MFNRLFRMSSFIVCFLAALIMAFTLPNSVYAQKP came in with an AmyQ secretion efficiency of 1.95.
The figure for MFNRLFRRCYTSTLIMAFTLPNSVYAQKP is 5.72.
Next, MFNRLFRVCFLAALIMAFDDDNSVYAQKP: 2.33.
Next, MFNRLFRVCFLAALIMAFEEEDDEVYAQKP: 4.05; MFNRLFRVCFLAALIMAFFLGNSVYAQKP: 2.37.
Turning to MFNRLFRVCFLAALIMAFRKKNSVYAQKP, the AmyQ secretion efficiency worked out at 7.12.
Next, MFNRLFRVCFLAALIMAFSSSSLFISLVTLPNSVYAQKP: 4.04; MFNRLFRVCFLAALIMAFTLPNSAYAQKP: 2.14.
The figure for MFNRLFRVCFLAALIMAFTLPNSCYAQKP is 2.79; for MFNRLFRVCFLAALIMAFTLPNSDYAQKP it is 6.44.
The figure for MFNRLFRVCFLAALIMAFTLPNSFYAQKP is 6.02.
MFNRLFRVCFLAALIMAFTLPNSGYAQKP: the AmyQ secretion efficiency worked out at 2.99.
Next, MFNRLFRVCFLAALIMAFTLPNSHYAQKP: 6.53; MFNRLFRVCFLAALIMAFTLPNSIYAQKP: 2.87.
Next, MFNRLFRVCFLAALIMAFTLPNSKYAQKP: 6.56; MFNRLFRVCFLAALIMAFTLPNSLYAQKP: 2.72.
With MFNRLFRVCFLAALIMAFTLPNSNYAQKP, the AmyQ secretion efficiency was determined as 5.99.
The sequence MFNRLFRVCFLAALIMAFTLPNSPYAQKP showed an AmyQ secretion efficiency of 7.43.
Next, MFNRLFRVCFLAALIMAFTLPNSQYAQKP: 7.49; MFNRLFRVCFLAALIMAFTLPNSSYAQKP: 2.08; MFNRLFRVCFLAALIMAFTLPNSTYAQKP: 2.43.
Next, MFNRLFRVCFLAALIMAFTLPNSVVTSVYAQKP: 2.32; MFNRLFRVCFLAALIMAFTLPNSVYAKKR: 3.37.
Regarding MFNRLFRVCFLAALIMAFTLPNSVYAQKR, the AmyQ secretion efficiency stood at 2.62.
Next, MFNRLFRVCFLAALIMAFTLPNSVYAQPK: 1.86.
The figure for MFNRLFRVCFLAALIMAFTLPNSVYAQTP is 2.03.
The figure for MFNRLFRVCFLAALIMAFTLPNSVYCQKP is 4.33.
MFNRLFRVCFLAALIMAFTLPNSVYDQKP had an AmyQ secretion efficiency of 6.94.
Next, MFNRLFRVCFLAALIMAFTLPNSVYEQKP: 7.29; MFNRLFRVCFLAALIMAFTLPNSVYFQKP: 7.24.
The figure for MFNRLFRVCFLAALIMAFTLPNSVYGQKP is 2.74.
Next, MFNRLFRVCFLAALIMAFTLPNSVYHQKP: 6.83.
As for MFNRLFRVCFLAALIMAFTLPNSVYIQKP, the AmyQ secretion efficiency was determined as 7.01.
The figure for MFNRLFRVCFLAALIMAFTLPNSVYKQKP is 6.24.
Next, MFNRLFRVCFLAALIMAFTLPNSVYLQKP: 6.77; MFNRLFRVCFLAALIMAFTLPNSVYMQKP: 7.02; MFNRLFRVCFLAALIMAFTLPNSVYNQKP: 6.82.
Consider MFNRLFRVCFLAALIMAFTLPNSVYPQKP, for which the AmyQ secretion efficiency turned out to be 7.22.
The figure for MFNRLFRVCFLAALIMAFTLPNSVYQQKP is 5.8; for MFNRLFRVCFLAALIMAFTLPNSVYRQKP it is 7.13; for MFNRLFRVCFLAALIMAFTLPNSVYSQKP it is 3.32.
Next, MFNRLFRVCFLAALIMAFTLPNSVYTQKP: 4.86; MFNRLFRVCFLAALIMAFTLPNSVYVQKP: 6.52; MFNRLFRVCFLAALIMAFTLPNSVYYQKP: 6.22.
The figure for MFNRLFRVCFLAALIMAFTLPNSWYAQKP is 7.03; for MFNRLFRVCFLAALIMAFTLPNSYYAQKP it is 7.48.
The sequence MFNRLFRVCFLAALIMAFTVYAQKP had an AmyQ secretion efficiency of 6.93.
On to MFNRLFRVCFLAALIMAFVFFIVFTLPNSVYAQKP, for which the AmyQ secretion efficiency amounted to 2.03.
Next, MFNRLFRVCFLAALIMAFVFTLPNSVYAQKP: 2.33; MFNRLFRVCFLAALIMAFVLTFFVYAQKP: 5.95; MFNRLFRVCFLAALIMTLPNSVYAQKP: 2.44.
MFNRLFRVCKKKRKRMAFTLPNSVYAQKP registered an AmyQ secretion efficiency of 7.15.
The figure for MFNRLFRVCRRAALIMAFTLPNSVYAQKP is 4.23.
MFNRLFRYCTLAALIMAFTLPNSVYAQKP displayed an AmyQ secretion efficiency of 1.93.
MFNRLRVCFLAALIMAFTLPNSVYAQKP showed an AmyQ secretion efficiency of 2.
Next, MFNTLFSVCFLAALIMAFTLPNSVYAQKP: 4.02.
The figure for MFQFAITLSVLCALILLVPTLLVIPFQHNKEAGASV is 6.31; for MFRKLLSSLAISALSLGLLVSAPTASFAAES it is 5.47; for MFRLLVSLRVWMVFLMNWVTPDRKTAAAAVY it is 7.07.
The figure for MFRMIVRMTLPLLIVCLAFSSFSASARAASE is 1.61.
In turn, MFSIFSLIMMTGLLFGLTSPAFAAEK returned an AmyQ secretion efficiency of 4.78.
The figure for MFSIGSIMACLILFSFTITTFINTETISAFSN is 5.65.
Next, MFSKWMSGLLLVAVGFSFTQVMVHAGET: 6.12; MFSRKILLSSALSFGMLISAVPALAAGT: 3.61; MFTFSGSMFLVGLSAALMSISLFSATASAAST: 1.64.
For the sequence MFTNHTISLLIIFLLASAVLAKPIEAHTV, the AmyQ secretion efficiency worked out at 2.28.
The sequence MFTWIYVVLVLSIAGIGGFSVHAASS returned an AmyQ secretion efficiency of 5.5.
Next, MGCGTQGKGSGIASFPVSAQAKDQ: 6.09; MGCTMMLLFSAIASFPVSAQAKDQ: 6.4.
The figure for MGFGSTLVVSALSISALALSVSGVASAHEI is 3.47.
Next, MGFVSSSIIALVTILMLSVTSLFALQPSAKAAEH: 2.48.
Regarding MGGGFSILIMMTGLLFGLTSPAFAAEK, the AmyQ secretion efficiency stood at 3.63.
Consider MGGGSFSIVFLILLLMLTLVVAPKEKAEAASS, for which the AmyQ secretion efficiency was 1.53.
The figure for MGGLGTLVLLLLVTGLFMSLFAVTATASAQTG is 3.36; for MGGMSCSILVVSVTLFFSFLTIGPLAHAQNS it is 2.24; for MGGSIILLLAVIIAAAAAGVAFYV it is 7.67.
The figure for MGGSILIQVMIMFTLLLTMAFSADAADS is 5.96; for MGGVFPLILSAVLFLSCFFGARQTEASASKR it is 4.03.
The figure for MGKRGGSGSSLFISSAVLLSILLPSGQAHAQSA is 1.07; for MGKWIYVVLVLSIAGIGGFSVHAASS it is 6.5; for MGKWYYVVLVLSIAGIGGFSVHAASS it is 7.3.
In the case of MGLGGKLSVAVAASFMSLSISLPGVQAAEG, the AmyQ secretion efficiency worked out at 1.01.
The figure for MGLGKKGTYRVAASFMSLSISLPGVQAAEG is 4.07.
The figure for MGLGKKLKKKKAASFMSLSISLPGVQAAEG is 7.92.
Next, MGLGKKLKKRKRRSFMSLSISLPGVQAAEG: 7.65; MGLGKKLMVAVAAIFMMLMIFLPGVQAAEG: 1.54.
MGLGKKLSVAVAASFMSLSISLDDEVQAAEG: the AmyQ secretion efficiency came out at 1.35.

(Values after the supplement of paper PMC9942255.)
